Laboratory results from PMC6625990, “Structural underpinnings of Ric8A function as a G-protein α-subunit chaperone and guanine-nucleotide exchange factor” (Nature Communications, 2019).
Like-named read-outs stand apart in the source and are kept apart here.

How the values were obtained:
[1] = DSF thermostability of Ric8A constructs and Ric8A1–492 mutants (protein alone); format: physicochemical, bovine
Protocol: Stabilities of Ric8A constructs with and without peptide ligands were assessed using differential scanning fluorimetry (DSF), in which an increase in fluorescence of the Sypro Orange dye is measured. Ric8A1–492, Ric8A1–452 and Ric8A1–426 in 20 mM Tris-HCl (pH 7.5) buffer containing 150 mM KCl, 5% glycerol, and 1 mM TCEP with and without peptide were used at a final concentration of 0.5 mg/ml and were supplemented with a 1000-fold dilution of Sypro Orange dye (Invitrogen). Temperature was increased at 1 °C/minute and fluorescence signals were recorded using real-time PCR (C1000 Touch thermal cycler, Bio Rad), with the cycler set to FRET mode and the excitation wavelength set at 450–490 nm and the emission wavelength at 560–580 nm.

Gαt333–350 = test: BLI: Ric8A1–492 and its mutants binding to biotinylated Gαt333–350; details: for binding to Gαt333–350 (in words): BLI; for Kd: BLI steady state
Protocol: (§1) An Octet RED96 system and streptavidin (SA)-coated biosensors (FortéBio, Menlo Park, CA) were used to measure association and dissociation kinetics for Gα peptides or the full-length Avi-tagged Gαt in relation to Ric8A1–492, Ric8A1–452, and Ric8A1–426. To obtain the Avi-tagged Gαt, Gαt was cloned into modified pET21a vector with the N-terminal His6-tag followed by the Avi tag and TEV cleavage site[59]. The Avi-tagged I340Q/N343H mutant of Gαt was prepared by QuikChange protocol. BL21(DE3) cells for expression of the Avi-tagged Gαt were grown in 2TY media supplemented with biotin (10 mg/liter), induced at OD600 of 0.6 with 50 µM IPTG and further grown overnight at 16 °C. Binding studies were performed in 20 mM Tris, 150 mM KCl, 5% glycerol, 1 mM TCEP, 0.5 mg/ml BSA, pH 8.0. All steps were performed at 26 °C, with biosensors stirred into 0.2 ml of sample in each well at 1000 rpm, and at a data acquisition rate of 5.0 Hz. N-terminally biotinylated Gαt333–350, Gαs363–380, C1 peptide and C2 peptide were loaded onto SA sensors at a concentration of 0.05, 0.05, 0.005, and 0.01 mg/ml for 40–90 seconds. Data for association and dissociation phases of the assay were collected as shown in Fig. 1b and Supplementary Figs. 8, 11, 12, and 14. To correct for baseline drift and non-specific binding, reference sensors lacking bound Gα peptide were used in the BLI assays with Ric8A proteins at the highest concentrations. Kinetic data fitting was performed using FortéBio Data Analysis software 10.0. For each concentration of Ric8A1–492, dissociation rate constant (kd) values were calculated from the corresponding dissociation phases of the curves. These kd values were used to calculate the association rate constant (ka) values from the association phases for each concentration according to the equation1 ka=kobserved-kd∕Ric8A1-492 The average ka and kd were calculated as means of the individual ka and kd values for all curves. Equilibrium dissociation constant KD was calculated as mean kd/mean ka. Steady-state data fitting was performed using the GraphPad Prism 7 software with the equation for one site specific binding.

Gαt = test: BLI: Ric8A1–492 and its mutants binding to full-length Avi-tagged Gαt
Protocol: as §1

[2] = DSF, protein alone, source data, mean of replicates
[3] = DSF, protein alone, source data, replicate 1
[4] = DSF, protein alone, source data, replicate 2
[5] = DSF, protein alone, source data, replicate 3
[6] = DSF, protein alone, source data, replicate 4
[7] = source data, experiment 1, read-out: KD (uM), Gαt333-350
[8] = source data, experiment 2, read-out: KD (uM), Gαt333-350
[9] = source data, experiment 3, read-out: KD (uM), Gαt333-350
[10] = source data, mean of replicates, read-out: Mean KD, Gαt333-350
[11] = BLI steady state, source data, experiment 1, read-out: KD (uM), Gαt
[12] = BLI steady state, source data, experiment 2, read-out: KD (uM), Gαt
[13] = BLI steady state, source data, experiment 3, read-out: KD (uM), Gαt
[14] = BLI steady state, source data, mean of replicates, read-out: mean KD, Gαt

| Molecule | mean Tm [1, 2] [C] | Tm (C ) [1, 3] [C] | Tm (C ) [1, 4] [C] | Tm (C ) [1, 5] [C] | Tm (C ) [1, 6] [C] | binding to Gαt333–350 (in words) (Gαt333–350) | Kd (Gαt333–350; [7]) [µM] | Kd (Gαt333–350; [8]) [µM] | Kd (Gαt333–350; [9]) [µM] | Kd (Gαt333–350; [10]) [µM] | binding to Gαt (in words) (Gαt; BLI) | Kd (Gαt; [11]) [µM] | Kd (Gαt; [12]) [µM] | Kd (Gαt; [13]) [µM] | Kd (Gαt; [14]) [µM] | other results |
| --- | --- | --- | --- | --- | --- | --- | --- | --- | --- | --- | --- | --- | --- | --- | --- | --- |
| A173W: A173 mutant of Ric8A1–492, printed A173W in figures and source data, A173F in text (protein, left off: His6, N-terminal, state not stated) MEPRAVADALETGEEDVVMEALRAYNRENSQSFTFDDAQQEDRKRLAKLLVSVLEQGLPPSRRVIWLQSIRILSRDRSCLDSFTSRRSLQALACYAGISASQGSVPEPLNMDVVLESLKCLCNLVLSSPVAQALAAEAGLVVRLAERVGLCRQSSFPHDVQFFDLRLLFLLTFLRTDVRQQLFQELQGVRLLTRALELTLGMTEGERHPELLPPQETERAMEILKVLFNITFDSIKREVDEEDAALYRHLGTLLRHCVMLAAAGDRTEELHGHAVNLLGNLPVKCLDVLLTLEPHEGSLEFLGVNMDVIRVLLSFMEKRLHQTHRLKESVAPVLSVLTECARMHRPARKFLKAQVLPPLRDVRTRPEVGELLRNKLVRLMTHLDTDVKRVAAEFLFVLCSESVPRFIKYTGYGNAAGLLAARGLMAGGRPEGQYSEDEDTDTDEYKEAKASINPVTGRVEEKPPNPMEGMTEEQKEHEAMKLVNMFDKLSRH | 45.6 | 45.57 | 45.54 | 45.74 | 45.49 | severely impaired the interaction | 23.8 | 26.9 | 26.8 | > 10 | severely reduced affinity | 11.2 | 11.5 | 15.1 | > 10 | Kd (Gαt333–350; mean ± SD, n = 3, ND – not detectable, read-out: KD (μM) Gαt333–350): > 10 µM; Kd (Gαt; BLI steady state, mean ± SD, n = 3, ND – not detectable, read-out: KD (μM) Gαt): > 10 µM; Kd (Gαt; BLI, representative curve (Fig. 3g), read-out: KD, steady-state binding curve, Gαt): > 10 µM |
| F169R: F169R mutant of Ric8A1–492 (protein, left off: His6, N-terminal, state not stated) MEPRAVADALETGEEDVVMEALRAYNRENSQSFTFDDAQQEDRKRLAKLLVSVLEQGLPPSRRVIWLQSIRILSRDRSCLDSFTSRRSLQALACYAGISASQGSVPEPLNMDVVLESLKCLCNLVLSSPVAQALAAEAGLVVRLAERVGLCRQSSFPHDVQFFDLRLLRLLTALRTDVRQQLFQELQGVRLLTRALELTLGMTEGERHPELLPPQETERAMEILKVLFNITFDSIKREVDEEDAALYRHLGTLLRHCVMLAAAGDRTEELHGHAVNLLGNLPVKCLDVLLTLEPHEGSLEFLGVNMDVIRVLLSFMEKRLHQTHRLKESVAPVLSVLTECARMHRPARKFLKAQVLPPLRDVRTRPEVGELLRNKLVRLMTHLDTDVKRVAAEFLFVLCSESVPRFIKYTGYGNAAGLLAARGLMAGGRPEGQYSEDEDTDTDEYKEAKASINPVTGRVEEKPPNPMEGMTEEQKEHEAMKLVNMFDKLSRH | 45.6 | 45.84 | 45.62 | 45.65 | 45.38 | severely impaired the interaction | 2.04 | 1.89 | 1.45 | 1.8 | severely reduced affinity | 2.04 | 1.84 | 1.66 | 1.8 | Kd (Gαt333–350; source data, experiment 4, read-out: KD (uM), Gαt333-350): 1.89 µM |
| N123E: N123E mutant of Ric8A1–492 (protein, UniProt Q5E9J8 1-492, looked up, variant N123E, residues 1-492) MEPRAVADALETGEEDVVMEALRAYNRENSQSFTFDDAQQEDRKRLAKLLVSVLEQGLPPSRRVIWLQSIRILSRDRSCLDSFTSRRSLQALACYAGISASQGSVPEPLNMDVVLESLKCLCELVLSSPVAQALAAEAGLVVRLAERVGLCRQSSFPHDVQFFDLRLLFLLTALRTDVRQQLFQELQGVRLLTRALELTLGMTEGERHPELLPPQETERAMEILKVLFNITFDSIKREVDEEDAALYRHLGTLLRHCVMLAAAGDRTEELHGHAVNLLGNLPVKCLDVLLTLEPHEGSLEFLGVNMDVIRVLLSFMEKRLHQTHRLKESVAPVLSVLTECARMHRPARKFLKAQVLPPLRDVRTRPEVGELLRNKLVRLMTHLDTDVKRVAAEFLFVLCSESVPRFIKYTGYGNAAGLLAARGLMAGGRPEGQYSEDEDTDTDEYKEAKASINPVTGRVEEKPPNPMEGMTEEQKEHEAMKLVNMFDKLSRH | 46.7 | 46.78 | 46.59 | 46.65 | 46.83 | ablated the binding |  |  |  |  | no Gαt binding was detected |  |  |  |  |  |
| Ric8A1–426: bovine Ric8A construct lacking the C-terminal region, residues 1–426 (protein, left off: His6, N-terminal, state not stated) MEPRAVADALETGEEDVVMEALRAYNRENSQSFTFDDAQQEDRKRLAKLLVSVLEQGLPPSRRVIWLQSIRILSRDRSCLDSFTSRRSLQALACYAGISASQGSVPEPLNMDVVLESLKCLCNLVLSSPVAQALAAEAGLVVRLAERVGLCRQSSFPHDVQFFDLRLLFLLTALRTDVRQQLFQELQGVRLLTRALELTLGMTEGERHPELLPPQETERAMEILKVLFNITFDSIKREVDEEDAALYRHLGTLLRHCVMLAAAGDRTEELHGHAVNLLGNLPVKCLDVLLTLEPHEGSLEFLGVNMDVIRVLLSFMEKRLHQTHRLKESVAPVLSVLTECARMHRPARKFLKAQVLPPLRDVRTRPEVGELLRNKLVRLMTHLDTDVKRVAAEFLFVLCSESVPRFIKYTGYGNAAGLLAARGLMA |  |  |  |  |  |  |  |  |  |  |  |  |  |  |  | Tm ([1]; DSF, Sypro Orange, protein alone 0.5 mg/ml, 20 mM Tris-HCl pH 7.5, 150 mM KCl, 5% glycerol, 1 mM TCEP, 1 °C/minute, mean ± SD (n = 3)): 36.5 ± 1.1 °C; mean Tm ([1]; Suppl Fig 14B DSF, mean of 3 experiments, SD 1.1): 36.5 C |
